The text below walks through data of article PMC4782291, “Comparative characterization of two GDP-mannose dehydrogenase genes from Saccharina japonica (Laminariales, Phaeophyceae)” (BMC Plant Biology, 2016).

Substrate in series [1]: Nc1nc2c(ncn2[C@@H]2O[C@H](COP(=O)(O)OP(=O)(O)O[C@H]3O[C@H](CO)[C@@H](O)[C@H](O)[C@@H]3O)[C@@H](O)[C@H]2O)c(=O)[nH]1
As to the kind of experiment: purified protein. It is filed as biochemical, Saccharina japonica. The conditions noted are these: 100 mM Tris-HCl, co-substrate NAD+, MBP fusion.

Substrate in series [2]: NC(=O)c1ccc[n+]([C@@H]2O[C@H](COP(=O)(O)OP(=O)(O)OC[C@H]3O[C@@H](n4cnc5c(N)ncnc54)[C@H](O)[C@@H]3O)[C@@H](O)[C@H]2O)c1
As to the kind of experiment: purified protein. The conditions noted are these: 100 mM Tris-HCl, co-substrate GDP-mannose, MBP fusion, varied: cofactor. It is filed as biochemical, Saccharina japonica.

Where [3] appears, read: optimal conditions (pH 8.0, 30 °C).
The mark [4] stands for this setting: optimal conditions (pH 8.25, 20 °C).

B1: SjGMD1 (Saccharina japonica) (protein)
chain: MAEVMPKESIIQIGCGVVGGAYAKAYKHHGFSVRGFDVVPSIIEKMNDAGIPCCHPDDCPEDLNPEIVLLSVPTPLIKETQRLDMKYVWSTVPLVLKLVEQSTGPAPIFVIRSTVPPGMTKEWMAAVKEKATKPFHVAFQPEFLRAVSCEEDARAPWQVVFGYMTGEEEVKARMTNAFLEFVGRDESKLTVLNIAEAEFMKLAHNYANGLKISFANCIYGLANQLDPTIDAQKVLYLVSSTAECFLSRKYGLRVGAPYGGVCLPKDVPELTSLAPEGSVFREFLAGTGKINEWISGPEAKNMRVELDESPNWVSPDSLTT
By Km is commonly meant the concentration of substrate that gives half-maximal velocity. Turning to B1, the Km in the series “purified protein [1]” (setting [3]) is 289 µM; in “purified protein [2]” (setting [3]), 139 µM.

B2: SjGMD2 (Saccharina japonica) (protein)
chain: MSGKENVVQIGCGVVGGAYAKAYVHHGFSLTGFDVVPAIIGNMNEAGIKCFHPDDCPADLNADIVLLSVPTPLIKETQRLDMKYVWSTIPLVVKLVEQSSGLAPILVIRSTVPPGTTLKWEAEVRAKTDKPFKVAFQPEFLRAVSCEEDARAPWQIVFGCAKDADETRTRMSNCFLDFVGRDEAKLTVLNIAEAEFMKLVHNYANGLKISFANCIYGLAHELDPTIDAQKVLYLVSSTAECYLSRKYGLRVGAPYGGVCLPKDVPELTSLAPEGSVFREFLAGTGKINEWITNTPNLKVELTESPNWVSPSELII
With B2, the Km worked out at 177 µM in “purified protein [1]” (setting [4]) and 195 µM in the series “purified protein [2]” (setting [4]).
